Reference: US20210171647A1 (WUXI BIOLOGICS SHANGHAI, published 2021)

Experiments:
Experiment in all cases: ELISA, antibody coated, OX40-ECD.His mutant supernatant; relative to silent alanine substitutions;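 further: captured OX40 mutant protein detected with HRP-labelled anti-His antibody, absorbance read-out, scaled to the mean signal of control mutants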
human OX40-ECD.His P130A = molecular target: T1, human OX40-ECD.His P130A (human, UniProt P43489 29-214)
T1 construct: extracellular domain; not shown: C-terminal His-tag
T1 sequence (looked up): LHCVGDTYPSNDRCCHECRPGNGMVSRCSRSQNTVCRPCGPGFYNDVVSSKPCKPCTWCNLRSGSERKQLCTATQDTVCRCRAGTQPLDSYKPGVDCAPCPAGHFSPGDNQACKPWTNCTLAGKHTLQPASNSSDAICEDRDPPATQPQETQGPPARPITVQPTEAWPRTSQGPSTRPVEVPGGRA

human OX40-ECD.His D40A = molecular target: T2, human OX40-ECD.His D40A (human, UniProt P43489 29-214)
T2 construct: extracellular domain; not shown: C-terminal His-tag
T2 sequence (looked up): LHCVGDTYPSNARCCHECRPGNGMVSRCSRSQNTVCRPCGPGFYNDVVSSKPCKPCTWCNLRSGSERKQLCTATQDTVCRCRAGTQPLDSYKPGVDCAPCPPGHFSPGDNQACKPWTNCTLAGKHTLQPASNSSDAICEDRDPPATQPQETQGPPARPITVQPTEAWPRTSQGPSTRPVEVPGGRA

human OX40-ECD.His Y36A = molecular target: T3, human OX40-ECD.His Y36A (human, UniProt P43489 29-214)
T3 construct: extracellular domain; not shown: C-terminal His-tag
T3 sequence (looked up): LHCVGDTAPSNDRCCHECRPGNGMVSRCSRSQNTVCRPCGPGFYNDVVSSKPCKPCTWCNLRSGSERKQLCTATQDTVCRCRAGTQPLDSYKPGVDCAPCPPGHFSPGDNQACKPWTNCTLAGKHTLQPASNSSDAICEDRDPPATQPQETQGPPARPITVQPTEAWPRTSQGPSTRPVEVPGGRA

human OX40-ECD.His H44A = molecular target: T4, human OX40-ECD.His H44A (human, UniProt P43489 29-214)
T4 construct: extracellular domain; not shown: C-terminal His-tag
T4 sequence (looked up): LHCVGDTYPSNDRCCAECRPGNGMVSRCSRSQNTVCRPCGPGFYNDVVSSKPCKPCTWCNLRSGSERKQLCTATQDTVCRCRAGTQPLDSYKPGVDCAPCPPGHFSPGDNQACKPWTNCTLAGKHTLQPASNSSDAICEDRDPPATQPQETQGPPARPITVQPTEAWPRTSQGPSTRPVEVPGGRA

human OX40-ECD.His H153A = molecular target: T5, human OX40-ECD.His H153A (human, UniProt P43489 29-214)
T5 construct: extracellular domain; not shown: C-terminal His-tag
T5 sequence (looked up): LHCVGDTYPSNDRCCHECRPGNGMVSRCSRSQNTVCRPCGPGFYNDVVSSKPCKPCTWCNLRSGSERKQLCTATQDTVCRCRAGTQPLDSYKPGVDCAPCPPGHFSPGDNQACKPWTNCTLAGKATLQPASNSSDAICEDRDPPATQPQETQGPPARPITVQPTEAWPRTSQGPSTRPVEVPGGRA

human OX40-ECD.His D163A = molecular target: T6, human OX40-ECD.His D163A (human, UniProt P43489 29-214)
T6 construct: extracellular domain; not shown: C-terminal His-tag
T6 sequence (looked up): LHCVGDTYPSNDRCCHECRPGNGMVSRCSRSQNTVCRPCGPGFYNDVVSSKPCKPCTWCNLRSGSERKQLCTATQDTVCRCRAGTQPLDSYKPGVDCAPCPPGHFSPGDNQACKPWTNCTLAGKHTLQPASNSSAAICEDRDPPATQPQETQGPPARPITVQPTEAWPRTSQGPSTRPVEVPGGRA

human OX40-ECD.His W144A = molecular target: T7, human OX40-ECD.His W144A (human, UniProt P43489 29-214)
T7 construct: extracellular domain; not shown: C-terminal His-tag
T7 sequence (looked up): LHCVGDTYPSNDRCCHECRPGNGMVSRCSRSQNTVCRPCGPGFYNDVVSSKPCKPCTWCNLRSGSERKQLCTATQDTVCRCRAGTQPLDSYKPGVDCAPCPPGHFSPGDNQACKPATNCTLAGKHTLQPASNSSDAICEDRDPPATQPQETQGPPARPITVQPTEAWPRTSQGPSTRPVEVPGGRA

human OX40-ECD.His G33A = molecular target: T8, human OX40-ECD.His G33A (human, UniProt P43489 29-214)
T8 construct: extracellular domain; not shown: C-terminal His-tag
T8 sequence (looked up): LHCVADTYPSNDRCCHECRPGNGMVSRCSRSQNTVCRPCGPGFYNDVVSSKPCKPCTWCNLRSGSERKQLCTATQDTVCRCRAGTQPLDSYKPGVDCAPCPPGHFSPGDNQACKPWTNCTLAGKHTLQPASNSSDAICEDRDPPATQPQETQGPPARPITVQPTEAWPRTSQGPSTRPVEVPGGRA

human OX40-ECD.His W86A = molecular target: T9, human OX40-ECD.His W86A (human, UniProt P43489 29-214)
T9 construct: extracellular domain; not shown: C-terminal His-tag
T9 sequence (looked up): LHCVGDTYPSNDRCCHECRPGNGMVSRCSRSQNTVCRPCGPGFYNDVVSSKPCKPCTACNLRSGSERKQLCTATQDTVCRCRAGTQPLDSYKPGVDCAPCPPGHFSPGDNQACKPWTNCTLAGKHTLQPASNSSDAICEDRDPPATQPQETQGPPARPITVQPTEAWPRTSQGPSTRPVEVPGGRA

human OX40-ECD.His D34A = molecular target: T10, human OX40-ECD.His D34A (human, UniProt P43489 29-214)
T10 construct: extracellular domain; not shown: C-terminal His-tag
T10 sequence (looked up): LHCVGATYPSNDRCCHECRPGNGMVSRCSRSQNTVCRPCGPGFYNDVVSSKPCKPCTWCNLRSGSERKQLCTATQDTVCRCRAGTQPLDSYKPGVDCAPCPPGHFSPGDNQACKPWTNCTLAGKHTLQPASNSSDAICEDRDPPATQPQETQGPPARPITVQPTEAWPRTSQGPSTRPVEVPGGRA

B1: 1.134.9-u1-IgG1L (antibody, V domains shown)
VH: QVQLQESGPGLVKPSGTLSLTCAVSGGSISSYNWWSWVRQPPGKGLEWIGEIYHGGNTNYNPSLKSRVTMSVDNSKNQFSLKLSSVTAADTAVYYCARAPGDWGGSPYFDFWGQGTLVTVSS
VL: SSELTQDPAVSVALGQTVRITCQGDNLRTYYASWYQQKPGQAPILLIYGRNKRPSGIPDRFSGSSSGNTASLTITGAQAEDEAAYYCNSRDSSGNPVVFGGGTKLTVL
notes: fully human IgG1, lambda
- Fold Change (human OX40-ECD.His P130A): 1.01
- Fold Change (human OX40-ECD.His D40A): 0.994
- Fold Change (human OX40-ECD.His Y36A): 1
- Fold Change (human OX40-ECD.His H44A): 1
- Fold Change (human OX40-ECD.His H153A): 0.997
- Fold Change (human OX40-ECD.His D163A): 0.318
- Fold Change (human OX40-ECD.His W144A): 0.881
- Fold Change (human OX40-ECD.His G33A): 1
- Fold Change (human OX40-ECD.His W86A): 0.842
- Fold Change (human OX40-ECD.His D34A): 0.991
